The values that follow come from patent publication US20200216495A1 (ADRX, published 2020).

Values joined by “and” are separate entries in the source; they are usually repeats but may differ in a detail not shown here. Identical values can stand only once. Square brackets hold non-standard residues; d marks the D form. Ends that are not written are not given here.

This test concerns the target Ac-VQIINK-NH2 (SEQ ID NO: 23) (N-terminal acetyl (Ac); C-terminal amide (NH2)). Nature of the test: cell-based or functional assay.
As to [dW][dR][dT][dK][dV][dR][dW] [wrtkvrw], the “VQIINK Inhibition IC50” value was 4.41 µm. For [dF][dW][dL][dR][dI][dH][dW][dF] [fwlrihwf], the “VQIINK Inhibition IC50” value is 4.42 µm. For the molecule [dW][dR][dL][dW][dI][dH][dW][dW] [wrlwihww], the “VQIINK Inhibition IC50” value was 4.07 µm. In the case of [dR][dK][dI][dR][dI][dH][dY][dH] [rkirihyh], the “VQIINK Inhibition IC50” value turned out to be 5.59 µm. Consider [dW][dR][dL][dM][dI][dH][dW] [wrlmihw], for which the “VQIINK Inhibition IC50” value was determined as 6.58 µm. Consider [dA][dR][dL][dR][dI][dH][dW] [arlrihw], for which the “VQIINK Inhibition IC50” value stood at 6.61 µm. On to [dK][dL][dK][dI][dV][dW] [klkivw], for which the “VQIINK Inhibition IC50” value is 6.95 µm. Then [dR][dR][dL][dK][dV][dR][dW][dW] [rrlkvrww], with 4.44 µm. In the case of [dV][dR][dW][dW][dK][dL][dR][dW] [vrwwklrw], the “VQIINK Inhibition IC50” value worked out at 4.06 µm. As for [dW][dK][dL][dK][dL][dR][dW] [wklklrw], the “VQIINK Inhibition IC50” value stood at 5.33 µm. As to [dI][dL][dK][dI][dV][dW] [ilkivw], the “VQIINK Inhibition IC50” value stood at 4.13 µm.

On to [dL][dK][dI][dR][dI][dH][dA][dH] [lkirihah], for which the “VQIINK Inhibition IC50” value is 5.54 µm. The value for [dW][dR][dL][dR][dI][dF][dW] [wrlrifw] was 6.33 µm; that for [dL][dK][dI][dA][dI][dH][dY] [lkiaihy] was 4.77 µm. For the molecule [dK][dV][dR][dW][dW][dL][dR][dW] [kvrwwlrw], the “VQIINK Inhibition IC50” value was 4.35 µm. For the molecule [dK][dL][dK][dW][dL][dW] [klkwlw], the “VQIINK Inhibition IC50” value worked out at 6.93 µm. The value for [dW][dR][dL][dK][dV][dR][dE][dW] [wrlkvrew] was 5.77 µm; that for [dV][dK][dV][dW]G[dR][dL][dW] (not fully specified (residue 5); printed as vkvwgrlw) [vkvwgrlw] was 4.51 µm.

For the molecule [dK][dI][dR][dI][dH][dY][dH][dL] [kirihyhl], the “VQIINK Inhibition IC50” value turned out to be 7.25 µm. For the molecule [dT][dL][dK][dI][dV][dW] [tlkivw], the “VQIINK Inhibition IC50” value is 5.02 µm and 7.98 µm. Take [dE][dL][dK][dI][dV][dW] [elkivw]: the “VQIINK Inhibition IC50” value was 6.85 µm. On to [dW][dR][dL][dR][dI][dH][dT] [wrlriht], for which the “VQIINK Inhibition IC50” value stood at 7.32 µm.

Regarding [dF][dK][dI][dE][dI][dE][dY][dH] [fkieieyh], the “VQIINK Inhibition IC50” value was found to be 4.03 µm. The value for [dW][dR][dR][dK][dV][dR][dW][dW] [wrrkvrww] was 6.43 µm. The value for [dW][dR][dL][dK][dV][dE][dW] [wrlkvew] was 4.36 µm; that for [dR][dL][dK][dV][dR][dW][dW] [rlkvrww] was 5.35 µm. On to [dT][dK][dI][dR][dI][dH][dY] [tkirihy], for which the “VQIINK Inhibition IC50” value was 4.77 µm.

Take [dR][dT][dL][dK][dI][dV][dW][dR] [rtlkivwr]: the “VQIINK Inhibition IC50” value is 5.65 µm. Then [dW][dR][dL][dR][dI][dH][dM] [wrlrihm], with 7.39 µm. The value for [dM][dR][dL][dK][dV][dR][dW] [mrlkvrw] was 5.67 µm. Take [dW][dR][dE][dK][dV][dR][dW][dW] [wrekvrww]: the “VQIINK Inhibition IC50” value came out at 7.34 µm.

Turning to [dW][dR][dL][dK][dV][dR][dR][dW] [wrlkvrrw], the “VQIINK Inhibition IC50” value was 7.04 µm. [dT][dI][dK][dL][dV][dW] [tiklvw]: the “VQIINK Inhibition IC50” value was found to be 5.37 µm.

In the case of [dL][dK][dI][dR][dI][dH][dR][dH] [lkirihrh], the “VQIINK Inhibition IC50” value came to 7.35 µm. As for [dL][dK][dI][dR][dI][dA][dY][dH] [lkiriayh], the “VQIINK Inhibition IC50” value came to 5.21 µm. As for [dW][dR][dL][dA][dI][dH][dW] [wrlaihw], the “VQIINK Inhibition IC50” value was 6.49 µm. With [dW][dF][dL][dR][dI][dH][dW] [wflrihw], the “VQIINK Inhibition IC50” value stood at 8.18 µm. For [dL][dK][dI][dR][dI][dH][dA] [lkiriha], the “VQIINK Inhibition IC50” value amounted to 5.3 µm. [dY][dR][dL][dK][dV][dR][dW] [yrlkvrw]: the “VQIINK Inhibition IC50” value came to 5.12 µm. On to [dL][dK][dI][dR][dI][dE][dY][dH] [lkirieyh], for which the “VQIINK Inhibition IC50” value came to 7.95 µm.

For [dL][dK][dV][dR][dW][dW] [lkvrww], the “VQIINK Inhibition IC50” value is 6.63 µm.
